IntAct's records for PubMed 22398447

B1: Origin recognition complex subunit 1 (Homo sapiens), Q13415 (parent)
chain: MAHYPTRLKTRKTYSWVGRPLLDRKLHYQTYREMCVKTEGCSTEIHIQIGQFVLIEGDDDENPYVAKLLELFEDDSDPPPKKRARVQWFVRFCEVPACKRHLLGRKPGAQEIFWYDYPACDSNINAETIIGLVRVIPLAPKDVVPTNLKNEKTLFVKLSWNEKKFRPLSSELFAELNKPQESAAKCQKPVRAKSKSAESPSWTPAEHVAKRIESRHSASKSRQTPTHPLTPRARKRLELGNLGNPQMSQQTSCASLDSPGRIKRKVAFSEITSPSKRSQPDKLQTLSPALKAPEKTRETGLSYTEDDKKASPEHRIILRTRIAASKTIDIREERTLTPISGGQRSSVVPSVILKPENIKKRDAKEAKAQNEATSTPHRIRRKSSVLTMNRIRQQLRFLGNSKSDQEEKEILPAAEISDSSSDEEEASTPPLPRRAPRTVSRNLRSSLKSSLHTLTKVPKKSLKPRTPRCAAPQIRSRSLAAQEPASVLEEARLRLHVSAVPESLPCREQEFQDIYNFVESKLLDHTGGCMYISGVPGTGKTATVHEVIRCLQQAAQANDVPPFQYIEVNGMKLTEPHQVYVQILQKLTGQKATANHAAELLAKQFCTRGSPQETTVLLVDELDLLWTHKQDIMYNLFDWPTHKEARLVVLAIANTMDLPERIMMNRVSSRLGLTRMCFQPYTYSQLQQILRSRLKHLKAFEDDAIQLVARKVAALSGDARRCLDICRRATEICEFSQQKPDSPGLVTIAHSMEAVDEMFSSSYITAIKNSSVLEQSFLRAILAEFRRSGLEEATFQQIYSQHVALCRMEGLPYPTMSETMAVCSHLGSCRLLLVEPSRNDLLLRVRLNVSQDDVLYALKDE

Variants of: B1
Conditions: with h4_bovin h4, P62803

| effect of a mutation on the interaction | Variant |
| --- | --- |
| disrupting interaction strength | W88A |
| disrupting interaction strength | Y64A |
| disrupting interaction strength | E94A |
